Consider 36 sequences from the supplement of paper PMC10567573.

The nature of the series: protein stability index of a GFP-peptide fusion (GPS, HEK-293T) (PSI 1-6); higher = more stable. Particulars: c terminus: a fixed tail appended.

± gives the standard deviation.
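Further: 24-mer peptide tiles fused after GFP, lentivirally expressed, FACS-sorted into six equal bins by GFP/DsRed ratio, decoded by Illumina sequencing, PSI is the read-weighted mean bin number.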

With PPLRLWRSVIEVPAVPEEILKRLL [DLC1], the protein stability index is, setting by setting: (treatment: DMSO) 2.26 ± 0.46; (treatment: MLN4924 1 uM, 8 h) 2.43 ± 0.18.

Take PPPAYEPPAPAPLPPPSAPSLQPS [SCAMP3]: the protein stability index (treatment: DMSO) turned out to be 5.04 ± 0.18 and the protein stability index (treatment: MLN4924 1 uM, 8 h) was determined as 4.97 ± 0.11.

For PPPLTSPSHGSLSHSKAPSGSQMS [NCF4], the protein stability index runs as follows: (treatment: DMSO) 4.83 ± 0.23; (treatment: MLN4924 1 uM, 8 h) 4.92 ± 0.35.

PPQPCATACKPVIRVPSVPPVPCV [KRT36]: the protein stability index (treatment: DMSO) was determined as 2.9 ± 0.28 and the protein stability index (treatment: MLN4924 1 uM, 8 h) came out at 2.91 ± 0.16.

As for PPWGLGPGAGDPAPGIGPPEPWPG [MYCL], the protein stability index reads like this: (treatment: DMSO) 3.63 ± 0.39; (treatment: MLN4924 1 uM, 8 h) 3.92 ± 0.058.

For the sequence PQCIKEEDTPSDNDSGICMSPESY [ATF4], the protein stability index came to 5.2 ± 0.23 (treatment: DMSO) and 5.28 ± 0.1 (treatment: MLN4924 1 uM, 8 h).

In turn, PQKRKPQEQLLECNKLCGRGQSRQ [SLC2A12] gave a protein stability index (treatment: DMSO) of 4.1 ± 0.37 and a protein stability index (treatment: MLN4924 1 uM, 8 h) of 4.4 ± 0.056.

With PRCKTTKYRNPSLKLMVNVCGHTL [MNAT1], the protein stability index came out at 2.39 ± 0.18 (treatment: DMSO) and 2.31 ± 0.23 (treatment: MLN4924 1 uM, 8 h).

For the sequence PRELFPPLFMAAFDGRHSQTLKAM [PRAME], the protein stability index came to 2.65 ± 0.41 (treatment: DMSO) and 2.69 ± 0.27 (treatment: MLN4924 1 uM, 8 h).

As to PRKRRRNGNEEDNHLPPQTKRSSR [FAM104A], the protein stability index (treatment: DMSO) was 5.34 ± 0.16 and the protein stability index (treatment: MLN4924 1 uM, 8 h) was determined as 5.36 ± 0.16.

PRPPSNPPARGTLKTSNLPEELRK [TRAF3IP2] displayed a protein stability index (treatment: DMSO) of 4.71 ± 0.2 and a protein stability index (treatment: MLN4924 1 uM, 8 h) of 4.79 ± 0.3.

Consider PRPVQLDETHPYTVTSVSCCHGNT [NEK8], for which the protein stability index by setting is: (treatment: DMSO) 3.94 ± 0.23; (treatment: MLN4924 1 uM, 8 h) 4.02 ± 0.14.

As to PSALFSKIRRGQFCIPEHISPKAR [TRIB1], the protein stability index reads like this: (treatment: DMSO) 2.81 ± 0.37; (treatment: MLN4924 1 uM, 8 h) 3.06 ± 0.47.

For the sequence PSEWRPLSEGCRAELAETIVYARV [CCDC3], the protein stability index is 3.14 ± 0.32 (treatment: DMSO) and 2.51 ± 0.23 (treatment: MLN4924 1 uM, 8 h).

Regarding PSLQPSRKLSPTEPKNYGSYSTQA [SCAMP3], the protein stability index stood at 4.4 ± 0.35 (treatment: DMSO) and 4.5 ± 0.22 (treatment: MLN4924 1 uM, 8 h).

With PSSPLRLGSYKAQKTSRSSSIPCS [PPEF2], the protein stability index is, setting by setting: (treatment: DMSO) 3.86 ± 0.24; (treatment: MLN4924 1 uM, 8 h) 3.95 ± 0.21.

In turn, PSSQLMPVKKQLQGASWELQSLRP [ZNF396] gave a protein stability index (treatment: DMSO) of 3.66 ± 0.34 and a protein stability index (treatment: MLN4924 1 uM, 8 h) of 3.78 ± 0.25.

Consider PTPSTPRPTPQDWLHRRAQILEIL [ADAMTS4], for which the protein stability index is, setting by setting: (treatment: DMSO) 2.97 ± 0.23; (treatment: MLN4924 1 uM, 8 h) 2.98 ± 0.25.

For the sequence PTYSDFCQFRPPVRVNDGGGSHPS [VDR], the protein stability index runs as follows: (treatment: DMSO) 3.9 ± 0.25; (treatment: MLN4924 1 uM, 8 h) 4.03 ± 0.18.

In the case of PVGQEIVIPFKVDTILKYLKDHFS [IQUB], the protein stability index was 2.33 ± 0.73 (treatment: DMSO) and 1.95 ± 0.39 (treatment: MLN4924 1 uM, 8 h).

With PVLHPSEERAAPVLSCEAATQTER [FAM189A2], the protein stability index worked out at 5.47 ± 0.27 (treatment: DMSO) and 5.44 ± 0.13 (treatment: MLN4924 1 uM, 8 h).

As to PVPPSEGKSRLSPAGEMKPMPLSE [BCL2L13], the protein stability index came to 5.13 ± 0.22 (treatment: DMSO) and 5.08 ± 0.073 (treatment: MLN4924 1 uM, 8 h).

Take PVYVSCIAQDTCTTTDHSSNPGPV [SPAG8]: the protein stability index stood at 3.75 ± 0.39 (treatment: DMSO) and 3.9 ± 0.33 (treatment: MLN4924 1 uM, 8 h).

With PYREDEEGAFGEHGSQGTYSNTKE [MAP2], the protein stability index runs as follows: (treatment: DMSO) 5.66 ± 0.22; (treatment: MLN4924 1 uM, 8 h) 5.72 ± 0.2.

Turning to QAIQMRLVDVACKHLTDTSHGVRN [INTS4], the protein stability index is 2.52 ± 0.4 (treatment: DMSO) and 2.52 ± 0.23 (treatment: MLN4924 1 uM, 8 h).

Regarding QARKRQEEREKEAAEQAERSQSSI [SMARCE1], the protein stability index reads like this: (treatment: DMSO) 5.26 ± 0.71; (treatment: MLN4924 1 uM, 8 h) 5.702 ± 0.038.

Turning to QCPGLGPAPTPTPPGRLGAPYSEA [ZBED3], the protein stability index by setting is: (treatment: DMSO) 4.35 ± 0.15; (treatment: MLN4924 1 uM, 8 h) 4.25 ± 0.067.

Take QCSQRMLSFSDALLSIIATVMILP [TMEM175]: the protein stability index was determined as 3.25 ± 0.4 (treatment: DMSO) and 3.33 ± 0.3 (treatment: MLN4924 1 uM, 8 h).

Take QDLCCRAIVSCTPVHLIDKLPLPV [RAB40C]: the protein stability index was determined as 2.4 ± 0.24 (treatment: DMSO) and 2.16 ± 0.18 (treatment: MLN4924 1 uM, 8 h).

With QDLIEDLKLARKAYHDPMLKLSIM [NET1], the protein stability index came to 2.33 ± 0.38 (treatment: DMSO) and 2.46 ± 0.26 (treatment: MLN4924 1 uM, 8 h).

Turning to QDRDALHMEGLIVRERILGADNID [FEM1B], the protein stability index by setting is: (treatment: DMSO) 4.38 ± 0.39; (treatment: MLN4924 1 uM, 8 h) 4.29 ± 0.28.

Regarding QEAAERESKLLRDLSAANEKNLLL [LRRC45], the protein stability index is, setting by setting: (treatment: DMSO) 4.37 ± 0.14; (treatment: MLN4924 1 uM, 8 h) 4.19 ± 0.13.

With QFRLKEAFDYIKQRRSMVSPNFGF [DUSP5], the protein stability index stood at 2.19 ± 0.31 (treatment: DMSO) and 2.22 ± 0.17 (treatment: MLN4924 1 uM, 8 h).

As to QGCPGAKKHEFLTSVLDALSTDMV [SMOC2], the protein stability index runs as follows: (treatment: DMSO) 2.68 ± 0.26; (treatment: MLN4924 1 uM, 8 h) 3.07 ± 0.27.

QGEMDRKCKQVKEKCKEEFVEEIK [ZMYND11]: the protein stability index reads like this: (treatment: DMSO) 4.91 ± 0.32; (treatment: MLN4924 1 uM, 8 h) 5.43 ± 0.24.

Sequence QGITMGCWDMYRHDIDCQWVDITD [LOXL2] registered a protein stability index (treatment: DMSO) of 2.4 ± 0.55 and a protein stability index (treatment: MLN4924 1 uM, 8 h) of 2.73 ± 0.42.
